Test results as given in patent US9383360B2, “Compositions and methods relating to lyme disease” (The United States of America, as represented by the …, priority 2012, dated 2016).

Columns and labels:
[1] = target: T1, Brevican (Homo sapiens, UniProt Q96GW7); test: BbHtrA proteolysis assay, brevican substrate; type: biochemical; conditions: SDS-PAGE, FIG. 5
T1 sequence (Q96GW7 23-911): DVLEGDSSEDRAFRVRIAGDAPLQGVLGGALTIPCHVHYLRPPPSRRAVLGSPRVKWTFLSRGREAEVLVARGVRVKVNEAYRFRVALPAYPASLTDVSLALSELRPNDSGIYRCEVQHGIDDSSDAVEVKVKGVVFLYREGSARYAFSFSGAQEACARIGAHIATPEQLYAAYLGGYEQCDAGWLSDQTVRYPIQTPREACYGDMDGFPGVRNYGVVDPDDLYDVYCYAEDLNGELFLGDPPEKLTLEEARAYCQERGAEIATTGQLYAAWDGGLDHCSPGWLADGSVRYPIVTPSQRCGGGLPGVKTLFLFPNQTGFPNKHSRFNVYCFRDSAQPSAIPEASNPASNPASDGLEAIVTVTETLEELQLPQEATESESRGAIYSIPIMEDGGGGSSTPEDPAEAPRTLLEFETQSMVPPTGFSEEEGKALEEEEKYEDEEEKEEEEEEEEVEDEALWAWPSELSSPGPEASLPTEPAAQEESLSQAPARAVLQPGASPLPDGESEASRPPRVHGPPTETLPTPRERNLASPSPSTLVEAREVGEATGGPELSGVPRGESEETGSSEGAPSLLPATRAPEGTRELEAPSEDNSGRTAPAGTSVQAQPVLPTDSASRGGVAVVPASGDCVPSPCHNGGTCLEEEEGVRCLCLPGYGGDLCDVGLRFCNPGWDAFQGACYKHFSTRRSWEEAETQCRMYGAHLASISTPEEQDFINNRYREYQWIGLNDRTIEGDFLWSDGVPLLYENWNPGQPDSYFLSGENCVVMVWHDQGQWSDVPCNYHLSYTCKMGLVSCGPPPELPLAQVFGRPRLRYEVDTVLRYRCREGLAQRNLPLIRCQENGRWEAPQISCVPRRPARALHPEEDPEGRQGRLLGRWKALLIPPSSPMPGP
Procedure: (§1) For proteolysis assays described in Examples herein, purified protein substrates (200-600 nM) and proteases (100-150 nM) were diluted in assay buffer (50 mM HEPES, pH 7.4, 5 mM CaCl2) and incubated overnight at 37° C. Samples were boiled for 4 minutes to inactivate the proteases. Proteoglycans were deglycosylated by overnight incubation at 37° C. with 0.01 U chondroitinase ABC (Seikagaku). Reactions were stopped by the addition of SDS/PAGE sample buffer, boiled for 4 minutes, and electrophoresed on pre-cast Tris-glycine gels (BioRad). Reaction products were visualized by silver staining.
(§2) Purified proteins were incubated with BbHtrA or BbHtrA^S226A as described herein. HtrA (also known as DegP) proteases belong to the family of serine proteases which contain a highly reactive serine residue in their active site. This serine (Ser210 in DegP) is part of the canonical His-Ser-Asp catalytic triad and mutation of the catalytic serine abolishes proteolytic activity (Skorko-Glonek et al., 1995). In BbHtrA, residues His119, Ser226 and Asp149 form the catalytic triad and mutation of serine 226 to alanine abolished proteolytic activity as expected (FIG. 5).
(§3) Reaction products were separated by SDS-PAGE and silver stained. Native collagen II and recombinant tenascin C were not degraded by BbHtrA indicating selectivity for proteoglycans, E-cadherin and fibronectin. […]

[2] = target: Versican (Homo sapiens, UniProt P13611); test: BbHtrA proteolysis assay, versican substrate; type: biochemical; conditions: SDS-PAGE, FIG. 5
Procedure: as §1, §2, §3

[3] = system: Decorin; test: BbHtrA proteolysis assay, decorin substrate; type: biochemical, bovine, human; conditions: SDS-PAGE, FIG. 5
Procedure: as §1, §2, §3

[4] = system: Biglycan; test: BbHtrA proteolysis assay, biglycan substrate; type: biochemical, bovine, human; conditions: SDS-PAGE, FIG. 5
Procedure: as §1, §2, §3

[5] = system: Plasma fibronectin; test: BbHtrA proteolysis assay, plasma fibronectin substrate; type: biochemical, human; conditions: incubated overnight or 96 hours, SDS-PAGE, FIG. 8A
Procedure: as §1
BbHtrA generates pro-inflammatory amino terminal (Fnf-29) and carboxyl terminal (FnIII13-14) fibronectin fragments. […] Fibronectin was incubated with BbHtrA overnight (FIG. 8A, lane 1) or for 96 hours (FIG. 8A, lane 3). Reaction products were separated electrophoretically, and the bands were excised and analyzed by tandem LC MS/MS, FIG. 8B.

[6] = target: Tenascin C (Homo sapiens, UniProt P24821); test: BbHtrA proteolysis assay, tenascin C substrate; type: biochemical; conditions: SDS-PAGE, silver stain
Procedure: as §1, §2, §3

Chain of Tenascin C (P24821 23-2201): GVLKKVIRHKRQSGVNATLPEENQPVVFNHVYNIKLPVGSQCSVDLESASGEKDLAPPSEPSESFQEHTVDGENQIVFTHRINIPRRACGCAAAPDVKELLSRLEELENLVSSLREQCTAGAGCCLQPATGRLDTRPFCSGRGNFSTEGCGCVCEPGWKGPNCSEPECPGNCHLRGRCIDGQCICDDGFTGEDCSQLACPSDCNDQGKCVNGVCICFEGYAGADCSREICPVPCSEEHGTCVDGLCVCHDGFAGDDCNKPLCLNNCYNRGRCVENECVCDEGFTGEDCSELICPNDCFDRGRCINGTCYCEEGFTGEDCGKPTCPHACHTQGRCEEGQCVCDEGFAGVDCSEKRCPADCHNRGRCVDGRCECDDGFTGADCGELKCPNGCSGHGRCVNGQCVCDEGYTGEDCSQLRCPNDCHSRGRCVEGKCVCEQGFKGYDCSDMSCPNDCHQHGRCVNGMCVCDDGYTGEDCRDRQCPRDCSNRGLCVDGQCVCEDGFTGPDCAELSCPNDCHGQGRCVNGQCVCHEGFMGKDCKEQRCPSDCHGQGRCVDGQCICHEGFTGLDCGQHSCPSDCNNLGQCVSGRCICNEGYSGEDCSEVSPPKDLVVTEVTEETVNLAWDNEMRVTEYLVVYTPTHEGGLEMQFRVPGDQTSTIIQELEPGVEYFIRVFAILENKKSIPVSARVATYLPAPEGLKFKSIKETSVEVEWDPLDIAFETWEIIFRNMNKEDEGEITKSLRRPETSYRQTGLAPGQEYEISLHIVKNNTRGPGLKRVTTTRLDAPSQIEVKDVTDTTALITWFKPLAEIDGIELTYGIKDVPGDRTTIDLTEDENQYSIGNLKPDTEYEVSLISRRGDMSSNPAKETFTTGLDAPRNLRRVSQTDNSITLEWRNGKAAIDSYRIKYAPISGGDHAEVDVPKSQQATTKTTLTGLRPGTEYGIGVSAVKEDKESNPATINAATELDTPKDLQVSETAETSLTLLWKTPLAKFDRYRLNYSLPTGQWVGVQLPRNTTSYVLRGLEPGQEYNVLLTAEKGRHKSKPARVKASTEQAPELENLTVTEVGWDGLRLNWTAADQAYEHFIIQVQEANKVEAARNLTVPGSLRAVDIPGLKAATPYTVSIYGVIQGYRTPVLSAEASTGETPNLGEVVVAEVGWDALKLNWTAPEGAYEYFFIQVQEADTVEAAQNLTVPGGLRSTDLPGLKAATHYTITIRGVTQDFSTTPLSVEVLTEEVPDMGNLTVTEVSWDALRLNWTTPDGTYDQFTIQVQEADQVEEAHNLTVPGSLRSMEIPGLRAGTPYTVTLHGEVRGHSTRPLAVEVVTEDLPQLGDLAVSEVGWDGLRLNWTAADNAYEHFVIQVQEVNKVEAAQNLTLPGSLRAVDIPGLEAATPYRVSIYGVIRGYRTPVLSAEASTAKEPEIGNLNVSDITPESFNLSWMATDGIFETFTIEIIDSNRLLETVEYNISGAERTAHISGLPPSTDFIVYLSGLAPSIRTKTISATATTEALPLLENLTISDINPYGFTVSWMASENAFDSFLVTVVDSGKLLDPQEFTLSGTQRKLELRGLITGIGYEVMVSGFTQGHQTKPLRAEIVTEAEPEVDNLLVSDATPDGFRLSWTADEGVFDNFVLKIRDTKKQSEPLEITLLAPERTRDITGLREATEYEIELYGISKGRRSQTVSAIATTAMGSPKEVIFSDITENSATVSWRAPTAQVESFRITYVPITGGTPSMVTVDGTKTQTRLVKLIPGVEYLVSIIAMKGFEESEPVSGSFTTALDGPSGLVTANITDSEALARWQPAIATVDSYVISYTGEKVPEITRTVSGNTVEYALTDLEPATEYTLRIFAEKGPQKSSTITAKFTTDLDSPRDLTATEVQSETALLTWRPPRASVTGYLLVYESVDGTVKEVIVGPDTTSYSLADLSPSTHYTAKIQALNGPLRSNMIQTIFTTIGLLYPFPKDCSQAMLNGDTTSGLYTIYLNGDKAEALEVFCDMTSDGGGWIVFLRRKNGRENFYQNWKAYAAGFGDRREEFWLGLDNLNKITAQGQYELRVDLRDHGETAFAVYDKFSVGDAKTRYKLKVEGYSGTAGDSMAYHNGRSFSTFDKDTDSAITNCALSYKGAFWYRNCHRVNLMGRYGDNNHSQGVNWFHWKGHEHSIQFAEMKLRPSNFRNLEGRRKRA

B1: BbHtrA: Recombinant wild type B. burgdorferi HtrA serine protease, mature protein amino acids 38-474, expressed in E. coli (SEQ ID NO:1, 9) (protein, listed as Borrelia burgdorferi)
chain: EEKDNTVRALQDSFREVSKKILPSSVEVHATGVIKQSFPIPFFFFDMPEFDSERKSNWAGSGVIIGRDSQKKSLFYVVTNSHVVDKATELEVVSYDKKKHKAKLIGKDEKKDIALISFESDDATIKVADLGDSDKLEIGDWVMAVGSPFQFSFTVTAGIVSGLQRSANPNLQSRNLFIQTDAAINRGNSGGPLVNIKGEVIGINAWIASNSGGNIGLGFAIPVNNIKSTVDFFLKGKKIESAWLGISFYPLKTRDSEVLKSLGVESNDVSAAIIASLYPGSPAVKSGLRAGDIIMKVNGVSMSVFQDVTSYISDFYAGEKVNVEILRGNVKKNIEIVLAVRPKDKELSSSKMLPGFVVYPLVEDIKAQLNLRNWIKGVVVDYIDKNLASNIKMKSGDVILSVNSKSVSNLREFYDALEVGKNTYKILRGNDSFKITF
In the case of B1, the Degradation of brevican [1] is reported as “degrades”, the Degradation of versican [2] is reported as “degrades” and the Degradation of decorin [3] is reported as “degrades”. For the same molecule, the Degradation of biglycan [4] was “degrades”, the Degradation of fibronectin [5] was “yielded distinct product bands” and the “Degradation of recombinant tenascin C” value [6] was “not degraded”.
